{"source": "paper PMC10511561", "about": "“Synergism between CMG helicase and leading strand DNA polymerase at replication fork” (Nature Communications, 2023)", "proteins": {"B1": {"name": "Ctf4 homotrimer (natural protein, yeast)", "chain": "MVSVIDKLVFDFGGKTLVSLAPDNNTLCVANKNGLTKILKTNNPEEEPETLDSSKLVSSIKCYSNSHFLMTTMQGDALRYNIDSSQEELLARFALPLRDCCVIHSGKMAVFGGDDLELILLELDDETHKKHAIKIDEQVSQISYNSQMNILAVSMINGKVQIFSLTSTIPNKVHELNDYIVANSYDDTHRDKILSNMMDDIDKDNDNDLSETADPDENNVADPEFCAANRICTRVAWHPKGLHFALPCADDTVKIFSIKGYSLQKTLSTNLSSTKAHFIDLQFDPLRGTYIAAVDLNNKLTVWNWETSEIHYTREFKRKITNIAWKIQADSKTLDLVLGTWSGSIAIVQNLAESVVSNIPDQSVAESSTKHGLFVDSESDLENLEGNDDINKSDKLFSDITQEANAEDVFTQTHDGPSGLSEKRKYNFEDEEDFIDDDDGAGYISGKKPHNEHSYSRVHKTHSFPISLANTGKFRYMPFSPAGTPFGFTDRRYLTMNEVGYVSTVKNSEQYSITVSFFDVGRFREYHFEDLFGYDLCFLNEKGTLFGQSKTGQIQYRPHDSIHSNWTKIIPLQAGERITSVAATPVRVIVGTSLGYFRSFNQFGVPFAVEKTSPIVALTAQNYRVFSVHYSQFHGLSYSLSELGTSSKRYYKRECPLPMSLPNINSDMKKDANLDYYNFNPMGIKSLFFSSYGDPCIFGSDNTLLLLSKWRSPEESKWLPILDSNMEIWKMSGGKETTDIHVWPLALAYDTLNCILVKGKHIWPEFPLPLPSEMEIRMPVFVKSKLLEENKAILNKKNEIGADTEAEEGEEDKEIQIPVSMAAEEEYLRSKVLSELLTDTLENDGEMYGNENEVLAALNGAYDKALLRLFASACSDQNVEKALSLAHELKQDRALTAAVKISERAELPSLVKKINNIREARYEQQLK", "notes": "Ctf4, yeast; also called Ctf4 trimer; source: E. coli BL21(DE3) Rosetta (pXZ1), purified (Ni-NTA, sumo protease, Ni-NTA, Mono Q, Superose 6)"}}, "target": "the molecule itself", "experiment": "cryo-EM structure; replisome assembled at room temperature from 0.7 uM CMG, forked DNA and ATPγS, then 1.5 molar excess of Polε, Ctf4, Tof1-Csm3; 100 mM KCl, 25 mM HEPES pH 7.6, 4 mM MgCl2, 4 mM ATPγS; 10-30% glycerol gradient with glutaraldehyde fixation; States I-VI by 3D classification", "data": [{"protein": "B1", "values": [{"measurement": "stoichiometry N", "result": 3}]}]}
